Assay results reported in the supplement of paper PMC9233669.
Variants at the floor of the assay were thinned out.

Legend:
[1] = tested on: biotinyl-Leu-oxazolone; experiment: self-aminoacylation, catalytic enhancement (BLO) (fold over background); higher = more active; k-Seq, kA / k0A0; sequences stand for … in GGGAAUGGAUCCACAUCUACGAAUUC…UUCACUGCAGACUUGACGAAGCUG
Procedure, shortened: (§1)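 Mutagenized RNA pools with a 21-nt variable region (0.43 μM) were reacted with each biotinyl-aminoacyl-oxazolone at 2–1250 μM for 90 minutes at room temperature, in 50 μL HEPES/NaCl/KCl/MgCl2/CaCl2 buffer containing 5% acetonitrile at pH 6.9–7.0. RNA captured on streptavidin was quantified by triplicate qPCR and by Illumina sequencing. The fraction reacted for each sequence was fit to a pseudo-first-order model with bootstrapping, and catalytic enhancement is the median kA divided by the uncatalyzed rate, taken as the low-activity peak of a bimodal Gaussian fit.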

[2] = tested on: biotinyl-Ile-oxazolone; experiment: self-aminoacylation, catalytic enhancement (BIO) (fold over background); higher = more active; k-Seq, kA / k0A0; sequences stand for … in GGGAAUGGAUCCACAUCUACGAAUUC…UUCACUGCAGACUUGACGAAGCUG
Procedure, shortened: as §1

[3] = tested on: biotinyl-Val-oxazolone; experiment: self-aminoacylation, catalytic enhancement (BVO) (fold over background); higher = more active; k-Seq, kA / k0A0; sequences stand for … in GGGAAUGGAUCCACAUCUACGAAUUC…UUCACUGCAGACUUGACGAAGCUG
Procedure, shortened: as §1

[4] = tested on: biotinyl-Trp-oxazolone; experiment: self-aminoacylation, catalytic enhancement (BWO) (fold over background); higher = more active; k-Seq, kA / k0A0; sequences stand for … in GGGAAUGGAUCCACAUCUACGAAUUC…UUCACUGCAGACUUGACGAAGCUG
Procedure, shortened: as §1

[5] = tested on: biotinyl-Met-oxazolone; experiment: self-aminoacylation, catalytic enhancement (BMO) (fold over background); higher = more active; k-Seq, kA / k0A0; sequences stand for … in GGGAAUGGAUCCACAUCUACGAAUUC…UUCACUGCAGACUUGACGAAGCUG
Procedure, shortened: as §1

[6] = tested on: biotinyl-Phe-oxazolone; experiment: self-aminoacylation, catalytic enhancement (BFO) (fold over background); higher = more active; k-Seq, kA / k0A0; sequences stand for … in GGGAAUGGAUCCACAUCUACGAAUUC…UUCACUGCAGACUUGACGAAGCUG
Procedure, shortened: as §1

Sequence	self-aminoacylation [1]	self-aminoacylation [2]	self-aminoacylation [3]	self-aminoacylation [4]	self-aminoacylation [5]	self-aminoacylation [6]
AGUGACCUAGGUCAUCGGGUG [Fam2.2 aminoacylation ribozyme variant]	4.73	3.48	3.69	4.64	3.53	25.7
AGUUACCUAGGUCAUCGGGUG [Fam2.2 aminoacylation ribozyme variant]	6.47	4.59	4.62	6.91	5.38	40.1
AUAACCCUGGCCAUCGAGUGA [Fam2.1 aminoacylation ribozyme variant]	2.71	3.35	2.09	3.57	4.48	11.4
AUAACCCUGGUCAACGAGUGA [Fam2.1 aminoacylation ribozyme variant]	5.91	3.32	3.33	6.89	6.45	31.1
AUAACCCUGGUCAUCGAGAGA [Fam2.1 aminoacylation ribozyme variant]	0.822	1.01	0.839	0.804	0.604	1.12
AUAACCCUGGUCAUCGAGGGA [Fam2.1 aminoacylation ribozyme variant]	2.12	1.52	1.43	0.626	1.45	2.14
AUAACCCUGGUCAUCGAGUCA [Fam2.1 aminoacylation ribozyme variant]	0.781	0.774	0.806	0.624	0.958	0.721
AUAACCCUGGUCAUCGAGUGU [Fam2.1 aminoacylation ribozyme variant]	17.9	6.98	7.4	16.4	20	69.6
AUAACCCUGGUCUUCGAGUGA [Fam2.1 aminoacylation ribozyme variant]	5.23	2.9	2.71	6.89	5.08	17.7
AUAACGCUGGUCAUCGAGUGA [Fam2.1 aminoacylation ribozyme variant]	4.06	3.06	2.76	5.24	4.6	15
AUACACCGAGGUCAUCGGGUG [Fam2.2 aminoacylation ribozyme variant]	4.55	4.24	4.34	4.15	5.37	28.8
AUACACCUAGCUCAUCGGGUG [Fam2.2 aminoacylation ribozyme variant]	1.91	1.9	2.21	1.24	2.23	4.61
AUACACCUAGGUAAUCGGGUG [Fam2.2 aminoacylation ribozyme variant]	2.07	1.93	2.18	3.83	2.84	12.3
AUACACCUAGGUCACCGGGUG [Fam2.2 aminoacylation ribozyme variant]	3.78	3.29	3.23	3.79	3.09	23.3
AUACACCUAGGUUAUCGGGUG [Fam2.2 aminoacylation ribozyme variant]	2.99	2.73	2.95	4.77	3.19	19.1
AUACACUUCAAGCAAUCGGUC [Fam1B.1 aminoacylation ribozyme variant]	0.979	1.05	0.96	5.86	0.804	9.74
AUACCUCAAACAAUCGGUCUG [Fam1A.1 aminoacylation ribozyme variant]	0.934	0.977	0.92	1.52	0.919	4.92
AUACUCCUAGGUCAUCGGGUG [Fam2.2 aminoacylation ribozyme variant]	5.38	2.97	2.98	3.91	3.69	27.5
AUACUUCAAACAAUCCGUCUG [Fam1A.1 aminoacylation ribozyme variant]	1.09	1.04	0.918	1.17	1.05	1.42
AUACUUCAAACAAUCGGUGUG [Fam1A.1 aminoacylation ribozyme variant]	1.25	1.05	0.94	2.68	1.22	3.81
AUACUUCAAACAAUUGGUCUG [Fam1A.1 aminoacylation ribozyme variant]	0.956	1.19	1.04	1.16	0.903	1.16
AUACUUCAAACAGUCGGUCUG [Fam1A.1 aminoacylation ribozyme variant]	0.996	0.876	0.699	0.831	0.965	0.584
AUACUUCAUACAAUCGGUCUG [Fam1A.1 aminoacylation ribozyme variant]	0.874	1.02	0.939	0.952	0.981	1.1
AUAUUUCAAACAAUCGGUCUG [Fam1A.1 aminoacylation ribozyme variant]	0.891	0.897	0.834	3.15	0.844	5.45
AUAUUUGCUAAUAGUCGCAAG [Fam3.1 aminoacylation ribozyme variant]	1.37	1.57	1.49	1.75	1.35	2.04
AUCACCCAGGUCAUCGAGUGA [Fam2.1 aminoacylation ribozyme variant]	8.69	4.04	4.61	8.46	7.75	30.4

Sequence	self-aminoacylation [1]	self-aminoacylation [2]	self-aminoacylation [3]	self-aminoacylation [4]	self-aminoacylation [5]	self-aminoacylation [6]
AUCACCCUAGUCAUCGAGUGA [Fam2.1 aminoacylation ribozyme variant]	8.78	4.35	4.27	7.4	8.04	49.7
AUCACCCUCGUCAUCGAGUGA [Fam2.1 aminoacylation ribozyme variant]	3.13	2.12	2.36	3.31	3.54	19.7
AUCACCCUGGGCAUCGAGUGA [Fam2.1 aminoacylation ribozyme variant]	13.1	4.64	5.3	11.2	10.6	69.7
AUCACCCUGGUCAUCGAGUAA [Fam2.1 aminoacylation ribozyme variant]	3.44	2	2.21	2.89	3.93	6.38
AUCACCCUGGUCAUCGAGUGA [Fam2.1 aminoacylation ribozyme variant]	27	10.6	11.3	28.4	27.8	154
AUCACCCUGGUCAUCGAGUGU [Fam2.1 aminoacylation ribozyme variant]	21.5	7.23	8.64	20.2	22.5	94.9
AUCACCCUGGUCAUCGGGUGA [Fam2.1 aminoacylation ribozyme variant]	9.48	5.17	5.27	14.1	9.05	33.4
AUCACCCUGGUCAUCGUGUGA [Fam2.1 aminoacylation ribozyme variant]	5.08	1.81	2.31	4.97	3.98	34.7
AUCACCCUGGUCAUCUAGUGA [Fam2.1 aminoacylation ribozyme variant]	11.7	5.3	5.63	12.9	12.8	85
AUCACCCUGGUCCUCGAGUGA [Fam2.1 aminoacylation ribozyme variant]	8.29	4.01	4.54	7.28	6.62	51.6
AUCACCCUGGUCGUCGAGUGA [Fam2.1 aminoacylation ribozyme variant]	2.67	1.24	1.31	1.41	1.39	5.78
AUCACCCUGGUCUUCGAGUGA [Fam2.1 aminoacylation ribozyme variant]	8.44	3.81	4.74	9.14	8.01	50.3
AUCACCCUGGUGAUCGAGUGA [Fam2.1 aminoacylation ribozyme variant]	8.91	3.57	3.87	8.41	7.25	54.1
AUCACCCUUGUCAUCGAGUGA [Fam2.1 aminoacylation ribozyme variant]	10.1	4.65	4.91	10.7	9.48	59.7
AUCACCUUGGUCAUCGAGUGA [Fam2.1 aminoacylation ribozyme variant]	6.86	3.39	3.35	7.19	5.76	5.13
AUCCACCGAGGUCAUCGGGUG [Fam2.2 aminoacylation ribozyme variant]	13.4	5.2	6.67	7.06	9.91	125
AUCCACCUAGGCCAUCGGGUG [Fam2.2 aminoacylation ribozyme variant]	5.49	3.55	4.12	6.22	3.46	27.4
AUCCACCUAGGUAAUCGGGUG [Fam2.2 aminoacylation ribozyme variant]	4.49	3	3.1	5.34	3.45	27.6
AUCCACCUAGGUCAGCGGGUG [Fam2.2 aminoacylation ribozyme variant]	5.2	3.68	4.02	4.43	3.79	31.2
AUCCACCUAGGUCAUCGGGCG [Fam2.2 aminoacylation ribozyme variant]	5.85	4.91	3.87	3.38	5.3	20.9
AUCCACCUAGGUCAUCGGGUA [Fam2.2 aminoacylation ribozyme variant]	53.2	20.2	18.1	26.5	39.4	275
AUCCACCUAGGUCAUCGGUUG [Fam2.2 aminoacylation ribozyme variant]	1.41	1.31	1.52	1.84	1.5	5.85
AUCCACCUAGGUCAUUGGGUG [Fam2.2 aminoacylation ribozyme variant]	3.86	3.51	3.24	3.8	3.76	24.6
AUCCACCUAGGUCCUCGGGUG [Fam2.2 aminoacylation ribozyme variant]	6.47	3.76	4.71	6.83	6.2	31.1
AUCCACCUAGUUCAUCGGGUG [Fam2.2 aminoacylation ribozyme variant]	4.83	2.9	3.24	4.63	3.53	24.1
